Measurements reported in patent US20200317768A1 (published 2020).
Positions count from the first letter of the chain named.

Experiments:
[1] = molecular target: T1, cynomolgus monkey FcγRIIa2 extracellular domain with C-terminal His-tag (cynomolgus monkey); assay: SPR (Biacore); KD of SG1 divided by KD of the variant for this FcgR
T1 construct: Expressed in FreeStyle 293 cells and purified; also called cyno FcγRIIa2; cynoFcgRIIa2; not shown: C-terminal His-tag
T1 chain: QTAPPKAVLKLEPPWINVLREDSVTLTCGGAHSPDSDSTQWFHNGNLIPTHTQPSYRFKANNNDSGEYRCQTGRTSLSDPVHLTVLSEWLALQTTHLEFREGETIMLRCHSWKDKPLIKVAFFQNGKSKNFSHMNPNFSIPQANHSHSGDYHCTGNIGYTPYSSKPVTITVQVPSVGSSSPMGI
Description: (§1) The kinetic analysis of interactions between these antibodies and FcγR was carried out using BIACORE® T200 or BIACORE® 4000 (GE Healthcare). HBS-EP+ (GE Healthcare) was used as the running buffer, and the measurement temperature was set to 25° C. A chip produced by immobilizing Protein A. Protein A/G or mouse anti-human IgG kappa light chain (BD Biosciences) onto a Series S Sensor Chip CM4 or CM5 (GE Healthcare) by the amine-coupling method was used. […] After the measurement, the antibody captured on the chip was washed off by allowing reaction with 10 mM glycine-HCl, pH1.5 and 25 mM NaOH so that the chip was regenerated and used repeatedly. The sensorgrams obtained as measurement results were analyzed by the 1:1 Langmuir binding model using the BIACORE® Evaluation Software to calculate the binding rate constant ka (L/mol/s) and dissociation rate constant kd (l/s), and the dissociation constant KD (mol/L) was calculated from these values. […] Regarding such interactions, KD values were calculated using the following 1:1 binding model described in BIACORE® T100 Software Handbook BR1006-48 Edition AE.
(§2) The resultant variants were expressed using M103202L889-SK1 as light chain and their affinity to human and cynoFcγRs were evaluated (Table 20).

[2] = molecular target: T2, cynomolgus monkey FcγRIIIaS extracellular domain with C-terminal His-tag (cynomolgus monkey, UniProt Q8SPW2 21-206 at identity 1.00)); assay: as above
T2 construct: Expressed in FreeStyle 293 cells and purified; also called cyno FcγRIIIaS; cynoFcγRIIIaS; not shown: C-terminal His-tag
T2 chain: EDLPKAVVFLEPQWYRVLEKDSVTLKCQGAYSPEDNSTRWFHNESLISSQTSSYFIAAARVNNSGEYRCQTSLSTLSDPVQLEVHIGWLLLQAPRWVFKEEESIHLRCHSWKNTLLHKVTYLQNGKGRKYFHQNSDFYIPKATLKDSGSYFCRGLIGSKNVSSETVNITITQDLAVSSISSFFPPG
Description: as §1, §2

[3] = molecular target: T3, human FcγRIIIaV extracellular domain with C-terminal His-tag (human, UniProt P08637 17-208); assay: as above
T3 construct: Expressed in FreeStyle 293 cells and purified; also called FcgRIIIaV; not shown: C-terminal His-tag
Description: as §1, §2

[4] = molecular target: T4, human FcγRIIaH extracellular domain with C-terminal His-tag (human, UniProt P12318 34-217); assay: as above
T4 construct: Expressed in FreeStyle 293 cells and purified; also called human FcγRIIa (type H); FcgRIIaH; not shown: C-terminal His-tag
T4 sequence: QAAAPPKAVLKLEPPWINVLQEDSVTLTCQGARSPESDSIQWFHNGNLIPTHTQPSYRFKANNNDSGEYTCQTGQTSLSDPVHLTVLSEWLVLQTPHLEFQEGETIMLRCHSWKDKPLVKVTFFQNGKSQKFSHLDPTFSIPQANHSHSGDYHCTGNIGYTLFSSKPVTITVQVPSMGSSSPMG
Description: as §1, §2

[5] = molecular target: T5, cynomolgus monkey FcγRIIa3 extracellular domain with C-terminal His-tag (cynomolgus monkey); assay: as above
T5 construct: Expressed in FreeStyle 293 cells and purified; also called cyno FcγRIIa3; cynoFcgRIIa3; not shown: C-terminal His-tag
T5 chain: T1 chain with K127I, N130K, H133P, Q142R
Description: as §1, §2

[6] = molecular target: T6, cynomolgus monkey FcγRIIb extracellular domain with C-terminal His-tag (cynomolgus monkey); assay: as above
T6 construct: Expressed in FreeStyle 293 cells and purified; also called cyno FcγRIIb; cynoFcγRIIb; not shown: C-terminal His-tag
T6 chain: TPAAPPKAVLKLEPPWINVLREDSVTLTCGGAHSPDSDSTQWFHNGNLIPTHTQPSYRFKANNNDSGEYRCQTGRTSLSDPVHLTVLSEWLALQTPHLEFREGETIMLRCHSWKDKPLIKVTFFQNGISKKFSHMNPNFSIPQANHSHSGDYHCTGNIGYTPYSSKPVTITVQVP
Description: as §1, §2

[7] = molecular target: T7, human FcγRIIaR extracellular domain with C-terminal His-tag (human, UniProt P12318 34-217); assay: as above
T7 construct: Expressed in FreeStyle 293 cells and purified; also called human FcγRIIa (type R); FcgRIIaR; not shown: C-terminal His-tag
T7 chain: T4 sequence with H134R
Description: as §1, §2

[8] = molecular target: T8, human FcγRIIaR extracellular domain, His-tagged (human, UniProt P12318 34-217); assay: SPR (BIACORE); KD of SG1 divided by KD of variant
T8 construct: also called human FcγRIIa (type R); FcgRIIaR; not shown: C-terminal His-tag
T8 chain: T4 sequence with H134R
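Note: relative to parent M103205H795-SG1 carrying the SG1 human heavy chain constant region.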

T3 sequence (P08637 17-208 F176V): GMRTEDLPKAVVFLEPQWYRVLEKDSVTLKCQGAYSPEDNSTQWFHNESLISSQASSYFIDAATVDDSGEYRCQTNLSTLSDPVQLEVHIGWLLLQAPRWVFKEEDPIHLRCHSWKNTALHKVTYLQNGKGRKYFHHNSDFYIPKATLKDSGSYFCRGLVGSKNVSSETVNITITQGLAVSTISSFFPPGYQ

B1: MS_M103205H795-SG1/M103202L889-SK1 (antibody, human IgG1, kappa)
heavy: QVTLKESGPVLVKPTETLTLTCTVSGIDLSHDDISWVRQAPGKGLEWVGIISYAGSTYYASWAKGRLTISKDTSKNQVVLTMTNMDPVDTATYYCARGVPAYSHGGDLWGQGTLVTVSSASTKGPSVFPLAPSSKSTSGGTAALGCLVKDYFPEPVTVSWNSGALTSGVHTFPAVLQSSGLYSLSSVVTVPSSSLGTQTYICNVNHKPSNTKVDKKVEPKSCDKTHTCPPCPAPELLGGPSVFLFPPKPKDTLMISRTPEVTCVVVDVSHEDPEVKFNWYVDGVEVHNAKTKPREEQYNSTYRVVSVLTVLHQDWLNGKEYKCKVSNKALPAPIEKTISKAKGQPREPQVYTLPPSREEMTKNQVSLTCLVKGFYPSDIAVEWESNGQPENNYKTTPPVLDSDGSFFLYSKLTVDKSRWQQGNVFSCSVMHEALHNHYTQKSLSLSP
light: DIVMTQSPATLSLSPGERATLSCTSSQSVYHANWLSWFQQKPGQPPKLLIYWASTLAYGVPSRFSGSGSGTDFTLTISSLQPEDAATYYCAGGYGGGRYAFGQGTKVEIKRTVAAPSVFIFPPSDEQLKSGTASVVCLLNNFYPREAKVQWKVDNALQSGNSQESVTEQDSKDSTYSLSSTLTLSKADYEKHKVYACEVTHQGLSSPVTKSFNRGEC
notes: Anti-latent myostatin IgG; also called MS1032LO06-SG1
With B1 the “KD fold (SG1 = 1)” value [1] was 1 fold, the “KD fold (SG1 = 1)” value [2] was 1 fold and the “KD fold (SG1 = 1)” value [3] was 1 fold. The “KD fold (SG1 = 1)” value [4] was 1 fold, the “KD fold (SG1 = 1)” value [5] was 1 fold and the “KD fold (SG1 = 1)” value [6] was 1 fold. The “KD fold (SG1 = 1)” value [7] was 1 fold.

B2: M103205H795-MY168 / M103202L889-SK1 (antibody, human IgG1, kappa)
heavy: QVTLKESGPVLVKPTETLTLTCTVSGIDLSHDDISWVRQAPGKGLEWVGIISYAGSTYYASWAKGRLTISKDTSKNQVVLTMTNMDPVDTATYYCARGVPAYSHGGDLWGQGTLVTVSSASTKGPSVFPLAPSSKSTSGGTAALGCLVKDYFPEPVTVSWNSGALTSGVHTFPAVLQSSGLYSLSSVVTVPSSSLGTQTYICNVNHKPSNTKVDKKVEPKSCDKTHTCPPCPAPELLNGPSVFLFPPKPKDTLMISRTPEVTCVVVDVSEEDPEVKFNWYVDGVEVHNAKTKPREEQYNSTYRVVSVLTVLHQDWLNGKEYKCKVSNKALPAPIEKTISKAKGQPREPQVYTLPPSREEMTKNQVSLTCLVKGFYPSDIAVEWESNGQPENNYKTTPAVLDSDGSFFLYSKLTVDKSRWQQGNVFSCSVMHEALHNHYTQKSLSLSP
light: B1 light
notes: Position 396 variant derived from MY052, expressed with M103202L889-SK1 as light chain
B2 was tested, and the “KD fold (SG1 = 1)” value [1] was 2 fold, the “KD fold (SG1 = 1)” value [2] was 0.08 fold and the “KD fold (SG1 = 1)” value [3] was 0.1 fold. The “KD fold (SG1 = 1)” value [4] was 0.4 fold, the “KD fold (SG1 = 1)” value [5] was 1.7 fold and the “KD fold (SG1 = 1)” value [6] was 1.5 fold. For the same binder, the “KD fold (SG1 = 1)” value [7] was 0.4 fold.

B3: M103205H795-MY475/M103202L889-SK1 (antibody, human IgG1, kappa)
heavy: B2 heavy with A233W, N238T, E270D, A332K, A398P
light: B1 light
notes: copies: 2 + 2
For B3, the “KD fold (SG1 = 1)” value [8] was 3.2 fold.

B4: M103205H795-MY052 / M103202L889-SK1 (antibody, human IgG1, kappa)
heavy: B2 heavy with A398M
light: B1 light
notes: Fc variant of M103205H795-SG1, expressed with M103202L889-SK1 as light chain; parent of the position 396 variants
For B4, the “KD fold (SG1 = 1)” value [1] was 3.4 fold, the “KD fold (SG1 = 1)” value [2] was 0.24 fold and the “KD fold (SG1 = 1)” value [3] was 0.54 fold. The “KD fold (SG1 = 1)” value [4] was 0.8 fold, the “KD fold (SG1 = 1)” value [5] was 4.4 fold and the “KD fold (SG1 = 1)” value [6] was 3.9 fold. The “KD fold (SG1 = 1)” value [7] was 0.8 fold.

B5: M103205H795-MY476/M103202L889-SK1 (antibody, human IgG1, kappa)
heavy: B2 heavy with A233Y, N238T, E270D, A332K, A398P
light: B1 light
notes: copies: 2 + 2
B5 was tested, and the “KD fold (SG1 = 1)” value [8] was 4.4 fold.

B6: M103205H795-MY171 / M103202L889-SK1 (antibody, human IgG1, kappa)
heavy: B2 heavy with A398F
light: B1 light
notes: as for B2
For B6, the “KD fold (SG1 = 1)” value [1] was 2.2 fold, the “KD fold (SG1 = 1)” value [2] was 0.11 fold and the “KD fold (SG1 = 1)” value [3] was 0.14 fold. The “KD fold (SG1 = 1)” value [4] was 0.5 fold, the “KD fold (SG1 = 1)” value [5] was 1.8 fold and the “KD fold (SG1 = 1)” value [6] was 1.8 fold. For the same binder, the “KD fold (SG1 = 1)” value [7] was 0.5 fold.

B7: M103205H795-MY170 / M103202L889-SK1 (antibody, human IgG1, kappa)
heavy: B2 heavy with A398E
light: B1 light
notes: as for B2
For B7, the “KD fold (SG1 = 1)” value [1] was 2.1 fold, the “KD fold (SG1 = 1)” value [2] was 0.12 fold and the “KD fold (SG1 = 1)” value [3] was 0.13 fold. The “KD fold (SG1 = 1)” value [4] was 0.4 fold, the “KD fold (SG1 = 1)” value [5] was 1.4 fold and the “KD fold (SG1 = 1)” value [6] was 1.5 fold. The “KD fold (SG1 = 1)” value [7] was 0.4 fold.

B8: M103205H795-MY169 / M103202L889-SK1 (antibody, human IgG1, kappa)
heavy: B2 heavy with A398D
light: B1 light
notes: as for B2
B8 was tested, and the “KD fold (SG1 = 1)” value [1] was 2.2 fold, the “KD fold (SG1 = 1)” value [2] was 0.1 fold and the “KD fold (SG1 = 1)” value [3] was 0.13 fold. For the same binder, the “KD fold (SG1 = 1)” value [4] was 0.6 fold, the “KD fold (SG1 = 1)” value [5] was 1.7 fold and the “KD fold (SG1 = 1)” value [6] was 1.8 fold. The “KD fold (SG1 = 1)” value [7] was 0.4 fold.
